The target in the assay is T1, KaiC_(S431E,T432E) (Synechococcus elongatus (PCC 7942), UniProt Q79PF4 1-519, S431E | T432E).
T1 sequence (looked up): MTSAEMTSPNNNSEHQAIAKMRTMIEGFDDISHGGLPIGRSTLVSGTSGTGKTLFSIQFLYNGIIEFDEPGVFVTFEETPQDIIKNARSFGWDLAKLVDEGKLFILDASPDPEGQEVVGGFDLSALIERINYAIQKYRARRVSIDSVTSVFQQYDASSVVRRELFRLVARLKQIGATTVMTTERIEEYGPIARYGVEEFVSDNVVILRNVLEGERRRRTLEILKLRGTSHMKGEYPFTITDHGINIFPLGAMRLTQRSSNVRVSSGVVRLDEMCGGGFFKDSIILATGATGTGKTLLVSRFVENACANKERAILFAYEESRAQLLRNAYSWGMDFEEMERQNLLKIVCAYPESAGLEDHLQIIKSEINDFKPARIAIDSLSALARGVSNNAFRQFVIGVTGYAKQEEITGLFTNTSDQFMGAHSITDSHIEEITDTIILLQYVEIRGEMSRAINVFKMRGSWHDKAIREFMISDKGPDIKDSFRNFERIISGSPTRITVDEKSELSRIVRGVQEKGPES
Briefly: fluorescence polarisation. Background: In fluorescence polarisation assays a small probe gives low polarisation when free and higher when bound to something large.

B1: WT-KaiB (natural protein, Synechococcus elongatus (PCC 7942), UniProt Q79PF5 1-102, looked up)
chain: MSPRKTYILKLYVAGNTPNSVRALKTLKNILEVEFQGVYALKVIDVLKNPQLAEEDKILATPTLAKVLPLPVRRIIGDLSDREKVLIGLDLLYGELQDSDDF
With B1, the binding result is “binds”.

The record behind these values is publication PMC7346098 (Biochemistry, 2020).
